Where no end group is shown, it is not given here. [ ]: non-standard residue; d: D form.
Tests used:
[1] = system: human neutrophils; experiment: Intracellular calcium mobilization (fura-2) in human neutrophils; type: cell-based; settings: 1 M PACAP27 and 10 nM WKYMVm
Experimental: Neutrophils were stimulated with 1 μM of PACAP27 (SEQ ID NO:1), PACAP38 (SEQ ID NO:2), or VIP (SEQ ID NO:3), and calcium concentrations were measured for 10 min. In order to measure EKR phosphorylation, each peptide hormones was used with 1 μM concentrations for 5 min. For cAMP measurement, each peptide hormones was used with 1 μM concentrations for 10 min.
Intracellular calcium concentrations ([Ca^2+]i) were determined using Grynkiewicz's method with fura-2/AM, as described in “Grynkiewicz, G., M. Poenie, and R. Y. Tsien. 1985. […] J. Biol. Chem. 260:3440-3450”. Briefly, the cells prepared in Example 1.2 were incubated with 3 µM fura-2/AM at 37° C. for 50 minutes in fresh serum free RPMI 1640 medium with continuous stirring. The incubated cells (2×10^6) were aliquoted for each assay in Ca^2+-free Locke's solution (154 mM NaCl, 5.6 mM KCl, 1.2 mM MgCl2, 5 mM HEPES (pH 7.3), 10 mM glucose, and 0.2 mM EGTA). Fluorescence changes at 340 and 380 nm using a common emission wavelength of 500 nm were measured, and fluorescence ratios were converted to [Ca2+]i, as described in above Grynkiewicz, G. et al.

[2] = system: RA FLS; experiment: Cell proliferation assay ([3H]-thymidine incorporation, cell counts) in RA FLS; type: cell-based, human; settings: 72 h
Experimental: Fibroblast-like synoviocytes (FLS) were prepared from synovial samples obtained from patients suffering from RA and osteoarthritis (OA), all of whom were also undergoing total joint replacement surgery. The FLS were isolated from the synovial tissues in accordance with a previously described procedure (Cho, C. S., M. L. Cho, S. Y. Min, W. U. Kim, D. J. Min, S. S. Lee, S. H. Park, J. Choe, and H. Y. Kim. 2000. CD40 engagement on synovial fibroblast up-regulates production of vascular endothelial growth factor. J. Immunol. 164: 5055-5061).
In brief, fresh synovial tissues were minced into 2- to 3-mm pieces, then treated for 4 h with 4 mg/ml type I collagenase (Worthington Biochemical), and maintained in Dulbecco's Modified Eagle's Medium (DMEM) containing 10% FBS at 37° C. in an atmosphere containing 5% CO2. […] MH7A cells, the immortalized synoviocytes that harbor the SV40 T antigen, were grown in DMEM supplemented with 10% FBS, as previously described (Miyazawa, K, A. Mori, and H. Okudaira. 1998. Establishment and characterization of a novel human rheumatoid fibroblast-like synoviocyte line, MH7A, immortalized with SV40T antigen. J. Biochem. 124: 1153-1162), and then employed in some of the experiments. Human umbilical vein endothelial cells (HUVECs) were isolated from fresh human umbilical cords via collagenase (Worthington Biochemical) digestion, and then maintained in 20% FBS-containing M-199 medium (Sigma, St. Louis, Mo.), as previously described. All HUVECs were used after no more than five passages.
The RA FLS, OA FLS, and HUVECs were plated onto 24-well culture dishes at a density of 2×10^4 cells/well, and then permitted to attach overnight. After 24 h of serum starvation, the cells were treated for 72 h with a variety of mitogens. [^3H]-thymidine (1 μCi) was added to each of the wells prior to the final 6 h of incubation. Cell growth was also evaluated via cell counts. Control and mitogen-treated cells were harvested by trypsinization, and the number of cells was determined with a hemocytometer, under ×100 magnification.

[3] = system: RA FLS; experiment: Intracellular Ca2+ measurement (Fluo3-AM) in RA FLS; type: cell-based, human
Experimental: The isolated FLS were incubated with Fluo3-AM working solution, containing 0.03% plutonic F-127 (the final concentration of Fluo3-AM was 20 μmol·L^−1) for 1 h at 37° C. After incubation, the cells were washed three times with normal or Na^+- and K^+-free Tyrode's solution, at 25° C. in order to remove the extracellular Fluo3-AM. Fluo3-AM fluorescence in the cells was elicited at 488 nm with a high-power Ar^+ laser, and the emission bands were detected at 530 nm with a photomultiplier. The fluorescence signal was detected using a confocal laser scanning system (Biorad Lasersharp MRA2, Oxfordshire, UK), equipped with a Nikon E-600 Eclipse microscope. The fluorescence intensity (FI) was measured both prior to (FI0) and after (FI) the addition of serum amyloid A (SAA) or phorbol-12-myristate-13-acetate (PMA) to either the normal the Na^+- and K^+-free Tyrode's solution. The change in [Ca^2+]i, was expressed in terms of the (FI−FI0)/FI0 ratio. A total of 50-120 images were scanned in each cell.

[4] = system: HUVECs; experiment: HUVEC tube formation assay on Matrigel; type: cell-based, human; settings: SAA 5 μM, 18 h
Experimental: The wounding migration and tube formation activity of the HUVECs were measured as previously described (30, 31). In brief, HUVECs plated at confluence on 60-mm culture dishes were wounded with pipette tips, then treated with SAA (SEQ ID NO:19) (0-5 μg/ml), WKYMVm (SEQ ID NO:5) (10 nM), or VEGF (20 ng/ml) in M199 medium, supplemented with 1% serum and 1 mM thymidine. After 12 h of incubation, migration was quantitated via counts of the cells migrating beyond the reference line. […] After 18 h of incubation, the cell morphology was visualized via phase-contrast microscopy and photographed.

[5] = system: aortic rings; experiment: Rat aorta ring assay; settings: ex vivo, 7 days
Experimental: Aortas from male Sprague-Dawley rats were cross-sectioned into rings, and mounted onto polymerized Matrigel dishes. Matrigel (150 μl) was then positioned on top and allowed to gel. After 7 days, the aortic rings, incubated with PBS, SAA (SEQ ID NO:19) (3 and 5 μg/ml), WKYMVm (SEQ ID NO:5) (10 nM), VEGF (20 ng/ml), or FBS (10%) were analyzed under an inverted microscope.

Molecule | calcium signaling on sequential stimulation (cross-desensitization) [1] | DNA synthesis activity / proliferation ([3H]-thymidine incorporation) [2] | release of intracellular Ca2+ ([3]; WKYMVm 10 nM) | formation of tube-like structures [4] | cell numbers [2] | concentration of maximal effect on DNA synthesis [2] [µM] | sprouting of endothelial cells from aortic rings [5] | increase in intracellular Ca2+ compared to basal levels ([3]; RA FLS, SAA 3 μM) [fold]
WKYMVm: specific agonist peptide for FPRL1, SEQ ID NO:5 (WKYMV[dM]; listed as Homo sapiens) | bidirectional desensitization | dose-dependent increase | mimicked | – | – | – | – | –
SAA: Serum amyloid A, multi-functional apolipoprotein, 12- to 14-kDa, SEQ ID NO:19 (protein, listed as Homo sapiens) MKLLTGLVFCSLVLGVSSRSFFSFLGEAFDGARDMWRAYSDMREANYIGSDKYFHARGNYDAAKRGPGGVWAAEAISDARENIQRFFGHGAEDSLADQAANEWGRSGKDPNHFRPAGLPEKY | – | increased in a dose-dependent fashion | – | far superior | dose-dependently increased | 5 | increased as the result of SAA treatment, in a dose-dependent manner | 2.3

— patent US20100291089A1, “LIGAND OF REGULATING IMMUNE RESPONSE, AND USE THEREOF IN TREATING AN IMMUNE RESPONSE-RELATED DISEASE” (POSTECH ACADEMY-INDUSTRY FOUNDATION, priority 2005, published 2010)
